Test results published in patent US7314724B2, “Therapeutic applications of laminin and laminin-derived protein fragments” (University of Washington, priority 1996, dated 2008).
Entries after “also recorded” stand apart in the source; their conditions may differ.

How the values were obtained:
Type in all cases: biochemical
[1] = target: T1, Aβ (1-40) (Homo sapiens, UniProt P05067); test: Thioflavin T fluorometry, Aβ (1-40) amyloid fibril formation; conditions: for dose dependence of inhibition of Aβ fibril formation, in words: 5 nM, 15 nM, 40 nM and 100 nM laminin, 1 week (FIG. 4); for fold inhibition of Aβ (1-40) amyloid fibril formation (fluorescence lower than Aβ alone): 37° C.; for fold decrease of Aβ fibrillogenesis: comparison study (FIG. 3); for inhibition of Aβ fibril formation, in words: dose study (FIG. 4), 3 days and 7 days
T1 construct: 2 μg of Aβ (1-40)(Bachem Inc., Torrance, Calif. USA; Lot #WM365); purchased Bachem Inc., Torrance, Calif; Lot #WM365
T1 sequence (P05067 672-711 limits assumed): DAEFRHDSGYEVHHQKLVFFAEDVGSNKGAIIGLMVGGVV
Description: The effects of laminin on Aβ fibrillogenesis was also determined using the previously described method of Thioflavin T fluorometry (Naiki et al, Lab. Invest. 65:104-110, 1991; Levine III, Protein Sci. 2:404-410, 1993; Levine III, Int. J. Exp. Clin. Invest. 2:1-6, 1995; Naiki and Nakakuki, Lab. Invest. 74:374-383, 1996). In this assay, Thioflavin T binds specifically to fibrillar amyloid and this binding produces a fluorescence enhancement at 480 nm that is directly proportional to the amount of amyloid fibrils formed (Naiki et al, Lab. Invest. 65:104-110, 1991; Levine III, Protein Sci. 2:404-410, 1993; Levine III, Int. J. Exp. Clin. Invest. 2:1-6, 1995; Naiki and Nakakuki, Lab. Invest. 74:374-383, 1996). In a first study, the effects of EHS laminin on Aβ (1-40) fibrillogenesis was assessed. For this study, 25 μM of freshly solubilized Aβ (1-40)(Bachem Inc., Torrance, Calif., USA; Lot #WM365) was incubated in microcentrifuge tubes at 37° C. for 1 week (in triplicate), either alone, or in the presence of 100 nM EHS laminin (Sigma Chemical Company, St. Louis, Mo., USA) in 100 mM Tris, 50 mM NaCl, pH 7.0 (TBS). 100 nM of laminin utilized for these studies represented a Aβ:laminin molar ratio of 250:1. 50 μl aliquots were then taken from each tube for analysis at 1 hr, 1 day, 3 days, and 1 week. In a second set of studies, the effects of laminin on Aβ (1 -40) fibril formation was directly compared to other basement membrane components including fibronectin, type IV collagen and perlecan. For these studies, 25 μM of freshly solubilized Aβ (1-40) was incubated in microcentrifuge tubes for 1 week (in triplicate) either alone, or in the presence of 100 nM of EHS perlecan (isolated as previously described)(Castillo et al, J. Biochem. 120:433-444, 1996), fibronectin (Sigma Chemical Company, St. Louis, Mo., USA) or type IV collagen (Sigma Chemical Company, St. Louis, Mo., USA). 50 ul aliquots were then taken for analysis at 1 hour, 1 day, 3 days and 1 week. In a third set of studies, 25 μM of freshly solubilized Aβ (1-40) was incubated in microcentrifuge tubes for 1 week (in triplicate) either alone, or in the presence of increasing concentrations of laminin (i.e. 5 nM, 15 nM, 40 nM and 100 nM). 50 μl aliquots were taken for analysis at 1 hour, 1 day, 3 days and 1 week.
For each determination described above, following each incubation period, Aβ peptides +/− laminin, perlecan, fibronectin or type IV collagen, were added to 1.2 ml of 100 μM Thioflavin T (Sigma Chemical Co., St. Louis, Mo.) in 50 mM phosphate buffer (pH 6.0). Fluorescence emission at 480 nm was measured on a Turner instrument-model 450 fluorometer at an excitation wavelength of 450 nm. For each determination, the fluorometer was calibrated by zeroing in the presence of the Thioflavin T reagent alone, and by seting the 50 ng/ml riboflavin (Sigma Chemical Co., St. Louis, Mo.) in the Thioflavin T reagent to 1800 fluorescence units. All fluorescence determinations were based on these references and any background fluorescence given off by laminin, perlecan, type IV collagen, or fibronectin alone in the presence of the Thioflavin T reagent was always subtracted from all pertinent readings.

[2] = target: T2, pre-formed Aβ (1-40) amyloid fibrils (Homo sapiens, UniProt P05067); test: Thioflavin T fluorometry, dissolution of pre-formed Aβ (1-40) amyloid fibrils; conditions: for dissolution of pre-formed Aβ amyloid fibrils: 25 μM fibrillized Aβ, 4 day incubation; for dose dependence of dissolution of pre-formed Aβ amyloid fibrils, in words: 16-125 nM laminin, 4 day incubation (FIG. 5)
T2 construct: 2 μg of Aβ (1-40)(Bachem Inc., Torrance, Calif. USA; Lot #WM365); purchased Bachem Inc., Torrance, Calif; Lot #WM365
T2 sequence (P05067 672-711 limits assumed): as above
Description: For this study, 1 mg of Aβ (1-40)(Bachem Inc., Torrance, Calif., USA; Lot #WM365) was dissolved in 1.0 ml of double distilled water (1 mg/ml solution) and then incubated at 37° C. for 1 week. 25 μM of fibrillized Aβ was then incubated at 37° C. in the presence or absence of laminin (from EHS tumor; Sigma Chemical Company, St. Louis, Mo., USA) at concentrations of 125 nM, 63 nM, 31 nM and 16 nM containing 150 mM Tris HCl, 10 mM NaCl, pH 7.0. Following a 4 day incubation, 50 μl aliquots were added to 1.2 ml of 100 μM Thioflavin T (Sigma Chemical Co., St. Louis, Mo.) in 50 mM NaPO4 (pH 6.0) for fluorometry readings as described in example 2.

[3] = target: T3, islet amyloid polypeptide (amylin) (Homo sapiens, UniProt P10997); test: Thioflavin T fluorometry, islet amyloid polypeptide (amylin) fibril formation
T3 construct: The major protein in islet amyloid is a 37 amino acid peptide, termed islet amyloid polypeptide or amylin
T3 sequence (P10997 34-70): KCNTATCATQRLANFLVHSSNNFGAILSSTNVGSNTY

## laminin: Engelbreth-Holm-Swarm (EHS) mouse tumor laminin (Sigma); 850 kDa basement membrane glycoprotein of A, B1 and B2 chains
[1]
  dose dependence of inhibition of Aβ fibril formation, in words: dose-dependent manner; also recorded: Significant dose-dependent inhibition
[1]; listed as Laminin
  dose dependence of inhibition of Aβ fibril formation, in words: dose-dependent manner
[1]; 25 μM Aβ (1-40), 100 nM laminin, 1 week (FIG. 2)
  fold inhibition of Aβ (1-40) amyloid fibril formation (fluorescence lower than Aβ alone): 27.1 fold
[1]; 25 μM Aβ (1-40), 100 nM laminin, 1 hour (FIG. 2)
  fold inhibition of Aβ (1-40) amyloid fibril formation (fluorescence lower than Aβ alone): 2.9 fold
[1]; 25 μM Aβ (1-40), 100 nM laminin, 1 day (FIG. 2)
  fold inhibition of Aβ (1-40) amyloid fibril formation (fluorescence lower than Aβ alone): 4.6 fold
[1]; 25 μM Aβ (1-40), 100 nM laminin, 3 days (FIG. 2)
  fold inhibition of Aβ (1-40) amyloid fibril formation (fluorescence lower than Aβ alone): 30.6 fold
[1]; comparison of basement membrane components (FIG. 3), 25 μM Aβ (1-40), 100 nM, 1 hour to 1 week
  effect on Aβ (1-40) fibrillogenesis, in words: potent inhibitory effect
[1]; 25 μM Aβ (1-40), 100 nM, 1 week
  fold decrease of Aβ fibrillogenesis: 21 fold
[1]; 25 μM Aβ (1-40), 100 nM, 1 day
  fold decrease of Aβ fibrillogenesis: 9 fold
[1]; 25 μM Aβ (1-40), 100 nM, 3 days
  fold decrease of Aβ fibrillogenesis: 9 fold
[1]; 40 nM laminin
  inhibition of Aβ fibril formation, in words: significantly inhibited
[1]; 100 nM laminin, 1 hour, 1 day
  inhibition of Aβ fibril formation, in words: significantly inhibited
[2]; 16 nM laminin
  dissolution of pre-formed Aβ amyloid fibrils: 25%
[2]; 31 nM laminin
  dissolution of pre-formed Aβ amyloid fibrils: 28%
[2]; 63 nM laminin
  dissolution of pre-formed Aβ amyloid fibrils: 39%
[2]; 125 nM laminin
  dissolution of pre-formed Aβ amyloid fibrils: 41%
[2]
  dose dependence of dissolution of pre-formed Aβ amyloid fibrils, in words: dissolution of pre-formed Alzheimer's disease amyloid fibrils in a dose-dependent manner
[2]; listed as Laminin
  dose dependence of dissolution of pre-formed Aβ amyloid fibrils, in words: dose-dependent manner
[3]; 40 nM, 15 nM and 5 nM laminin, 1 week (FIG. 6)
  inhibition of amylin fibrillogenesis, in words: no significant inhibition
[3]; 100 nM laminin, all time points within 1 week (FIG. 6)
  inhibition of amylin fibril formation, in words: did not significantly inhibit; also recorded: does not significantly inhibit
